B1: OmpT protease variant OmpT D97V (protein)
chain: STETLSFTPDNINADISLGTLSGKTKERVYLAEEGGRKVSQLDWKFNNAAIIKGAINWDLMPQISIGAAGWTTLGSRGGNMVDQDWMDSSNPGTWTVESRHPDTQLNYANEFDLNIKGWLLNEPNYRLGLMAGYQESRYSFTARGGSYIYSSEEGFRDDIGSFPNGERAIGYKQRFKMPYIGLTGSYRYEDFELGGTFKYSGWVESSDNDEHYDPGKRITYRSKVKDQNYYSVAVNAGYYVTPNAKVYVEGAWNRVTNKKGNTSLYDHNNNTSDYSKNGAGIENYNFITTAGLKYTF
B2: OmpT protease variant OmpT D97T (protein)
chain: B1 chain with V97T
B3: OmpT protease variant OmpT D97C (protein)
chain: B1 chain with V97C
B4: OmpT protease variant OmpT D97P (protein)
chain: B1 chain with V97P
B5: OmpT protease variant OmpT D97I (protein)
chain: B1 chain with V97I
B6: OmpT protease variant OmpT D97F (protein)
chain: B1 chain with V97F
B7: OmpT protease variant OmpT D97K (protein)
chain: B1 chain with V97K
B8: OmpT protease variant OmpT D97S (protein)
chain: B1 chain with V97S
B9: OmpT protease variant OmpT D97Y (protein)
chain: B1 chain with V97Y
B10: OmpT protease variant OmpT D97N (protein)
chain: B1 chain with V97N
B11: OmpT protease variant OmpT D97E (protein)
chain: B1 chain with V97E
B12: OmpT protease variant OmpT D97G (protein)
chain: B1 chain with V97G
B13: OmpT protease variant OmpT D97H (protein)
chain: B1 chain with V97H
B14: OmpT protease variant OmpT D97Q (protein)
chain: B1 chain with V97Q
B15: OmpT protease variant OmpT D97M (protein)
chain: B1 chain with V97M
B16: OmpT protease variant OmpT D97R (protein)
chain: B1 chain with V97R
B17: OmpT protease variant OmpT D97W (protein)
chain: B1 chain with V97W
B18: OmpT protease variant OmpT D97A (protein)
chain: B1 chain with V97A
B19: OmpT protease variant OmpT D97L (protein)
chain: B1 chain with V97L

Positions count from the first letter of the chain named. Numbers in names are those of the source.

fusion protein PRV, sequence (chain, as listed by the source): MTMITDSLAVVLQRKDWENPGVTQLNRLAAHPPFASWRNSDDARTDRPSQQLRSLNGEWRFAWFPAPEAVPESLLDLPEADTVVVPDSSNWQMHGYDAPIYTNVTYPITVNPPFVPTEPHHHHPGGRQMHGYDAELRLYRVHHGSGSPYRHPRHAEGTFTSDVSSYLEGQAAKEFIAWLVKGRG

This series addresses fusion protein PRV.
Take B1: the relative cleavage efficiency result is given as “less than 3.0%”.

For B2, the relative cleavage efficiency is less than 3%.

Consider B3, for which the relative cleavage efficiency is 3.2%.

As for B4, the relative cleavage efficiency entry is “less than 3.0%”.

Take B5: the relative cleavage efficiency entry is recorded as “less than 3.0%”.

In the case of B6, the relative cleavage efficiency was less than 3%.

Consider B7, for which the relative cleavage efficiency result is “less than 3.0%”.

In turn, B8 showed a relative cleavage efficiency of less than 3%.

B9: the relative cleavage efficiency result is reported as “less than 3.0%”.

With B10, the relative cleavage efficiency is less than 3%.

Protein B11 displayed a relative cleavage efficiency of 5%.

As to B12, the relative cleavage efficiency entry was “less than 3.0%”.

B13 gave a relative cleavage efficiency of 7.8%.

Regarding B14, the relative cleavage efficiency was less than 3%.

In the case of B15, the relative cleavage efficiency was 3%.

As to B16, the relative cleavage efficiency entry was “less than 3.0%”.

For B17, the relative cleavage efficiency entry is “less than 3.0%”.

As to B18, the relative cleavage efficiency was less than 3%.

In turn, B19 showed a relative cleavage efficiency of less than 3%.

The record behind these values is patent US20070077617.
